We go through 13 molecules from patent publication US20130137631A1.

For this assay, the target named is T1, human GIP receptor (human), P48546.
T1 chain: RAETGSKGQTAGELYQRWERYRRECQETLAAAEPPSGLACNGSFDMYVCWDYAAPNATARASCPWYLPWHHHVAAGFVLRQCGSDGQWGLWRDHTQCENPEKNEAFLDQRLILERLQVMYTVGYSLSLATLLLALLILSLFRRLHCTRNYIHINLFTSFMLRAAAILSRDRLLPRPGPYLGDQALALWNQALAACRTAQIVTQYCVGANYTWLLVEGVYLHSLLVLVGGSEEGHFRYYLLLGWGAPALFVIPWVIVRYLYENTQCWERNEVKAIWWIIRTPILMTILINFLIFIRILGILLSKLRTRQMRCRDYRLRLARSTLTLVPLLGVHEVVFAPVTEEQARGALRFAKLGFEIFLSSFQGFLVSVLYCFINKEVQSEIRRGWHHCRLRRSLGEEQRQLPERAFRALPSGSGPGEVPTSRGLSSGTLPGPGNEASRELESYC
Put plainly: 125I-GIP displacement, HEK-GIPR membranes.

For the molecule YAEGTFISDYSIALDKIAQQEFVNWLLAQKPSSGAPPKSK (modifications not checked) [0601GIP5097], the % Inh 10 nM was determined as 101%. YAEGTFISDYSIALEKIRQQEFVNWLLAQKPSSGAPPNSK (modifications not checked) [0601GIP5098] displayed a % Inh 10 nM of 97%.

The molecule HAEGTFISDYSIAMDKIHQQDFVNWLLAQKPKKIRYS (modifications not checked) [0601GIP4838] returned a % Inh 10 nM of 34.3%.

Turning to YAEGTFISDYSIAMDKIHQQDFVNWLLAQKPKQIRYS (modifications not checked) [0601GIP4854], the % Inh 10 nM was 93.5%. On to YAEGTFISDYSIAMDKIHQQDFVNWLLAQKPKKIQYS (modifications not checked) [0601GIP4913], for which the % Inh 10 nM is 92.1%.

Regarding YAEGTFISDYSIAMDKIHQQDFVNWLLAQKPQQIRYS (modifications not checked) [0601GIP4855], the % Inh 10 nM stood at 78.8% and the 50% inhibitory concentration (IC50) was 0.72 nM. Molecule YAEGTFISDYSIAMDKIHQQDFVNWLLAQKPNKIRYS (modifications not checked) [0601GIP4851] registered a % Inh 10 nM of 87%. YAEGTFISDYSIAMDKIHQQDFVQWLLAQKPKKIRYS (modifications not checked) [0601GIP4865 (row r89, Gln24)]: the % Inh 10 nM was 85.6%. In turn, YAEGTFISDYSIAMDKIHQQDFVNQLLAQKPKKIRYS (modifications not checked) [0601GIP4845] returned a % Inh 10 nM of 69.5%. YAEGTFISDYSIAMDKIHQQDFVNWLLAQKPKKARYS (modifications not checked) [0601GIP4856] showed a % Inh 10 nM of 83.7%. The molecule YAEGTFISDYSIAMDKIHQQDFVNWLLAQKPKNIRYS (modifications not checked) [0601GIP4852] gave a % Inh 10 nM of 90%. Turning to YAEGTFISDYSIAMDKIHQQDFVNWLLAQKPKKQRYS (modifications not checked) [0601GIP4914], the % Inh 10 nM was 96.3%. Same read-out and setting: under YAEGTFISDYSIAMDKIHQQDFVNWLLAQKPQKIRYS (modifications not checked) [0601GIP4853] stands 91%.
